Measured values published in publication PMC5725494, “Cell cycle-dependent phosphorylation regulates RECQL4 pathway choice and ubiquitination in DNA double-strand break repair”.
Positions count from the first letter of the chain named.

Legend:
Assay in all cases: EMSA; 25 or 50 nM protein, 0.5 nM DNA; 5 mM MnCl2, no ATP; 25 mM HEPES pH 7.4, 5 mM MnCl2, 1 mM DTT, 100 ng/mL BSA, 5% glycerol, no ATP; 10 min at 37 °C; 10% native PAGE
Settings in all cases: protein: recombinant; tags: 3xFLAG; label: 5'-32P on Mix3-19 (S13); fork: 19 bp duplex with 5' T15 arm (strand 1) and 3' T15 arm (strand 2)
RECQL4 RQ4-2D = target: T1, RECQL4 RQ4-2D (UniProt O94761 1-1208, S89D;S251D)
T1 sequence: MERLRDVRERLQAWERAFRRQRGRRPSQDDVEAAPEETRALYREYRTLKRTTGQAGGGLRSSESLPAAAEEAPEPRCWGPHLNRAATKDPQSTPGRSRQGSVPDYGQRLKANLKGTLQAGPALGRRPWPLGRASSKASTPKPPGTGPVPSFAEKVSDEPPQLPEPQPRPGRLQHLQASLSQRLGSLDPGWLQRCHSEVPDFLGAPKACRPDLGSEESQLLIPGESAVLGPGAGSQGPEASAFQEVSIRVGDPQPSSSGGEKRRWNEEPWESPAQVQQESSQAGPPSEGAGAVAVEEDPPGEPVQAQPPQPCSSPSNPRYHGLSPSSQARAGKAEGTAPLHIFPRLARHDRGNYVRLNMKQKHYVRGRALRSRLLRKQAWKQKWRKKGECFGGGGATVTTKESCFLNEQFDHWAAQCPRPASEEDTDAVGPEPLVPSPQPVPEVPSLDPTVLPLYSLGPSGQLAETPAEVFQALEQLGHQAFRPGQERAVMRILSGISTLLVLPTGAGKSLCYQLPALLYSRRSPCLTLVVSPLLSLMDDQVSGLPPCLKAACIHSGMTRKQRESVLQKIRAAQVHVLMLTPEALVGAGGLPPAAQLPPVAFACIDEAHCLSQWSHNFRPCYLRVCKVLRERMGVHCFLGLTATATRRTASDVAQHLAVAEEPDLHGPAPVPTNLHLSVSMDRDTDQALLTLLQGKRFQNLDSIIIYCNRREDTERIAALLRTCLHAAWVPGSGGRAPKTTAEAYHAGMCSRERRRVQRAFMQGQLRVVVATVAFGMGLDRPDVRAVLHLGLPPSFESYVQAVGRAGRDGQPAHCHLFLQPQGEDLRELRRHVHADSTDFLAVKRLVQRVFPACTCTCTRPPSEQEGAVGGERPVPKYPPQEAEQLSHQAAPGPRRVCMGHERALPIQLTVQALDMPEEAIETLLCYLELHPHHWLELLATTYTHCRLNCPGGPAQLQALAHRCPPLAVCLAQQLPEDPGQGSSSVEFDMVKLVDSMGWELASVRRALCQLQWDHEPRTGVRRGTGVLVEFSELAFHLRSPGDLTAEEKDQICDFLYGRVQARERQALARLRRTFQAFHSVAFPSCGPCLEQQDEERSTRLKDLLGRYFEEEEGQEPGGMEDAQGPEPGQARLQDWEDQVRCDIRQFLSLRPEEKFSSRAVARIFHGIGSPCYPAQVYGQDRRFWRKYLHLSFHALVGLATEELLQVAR

RECQL4 WT (RQ4Wt) = target: T2, RECQL4 WT (RQ4Wt) (UniProt O94761 1-1208)
T2 sequence: T1 sequence with D89S, D251S

RECQL4 RQ4-2A = target: T3, RECQL4 RQ4-2A (UniProt O94761 1-1208, S89A;S251A)
T3 sequence: T1 sequence with D89A, D251A

Measured: binding signal

B1: Mix3/4-19 Y-shaped duplex (dsDNA)
DNA 1: TTTTTTTTTTTTTTTGAGTGTGGTGTACATGCAC
DNA 2: GTGCATGTACACCACACTCTTTTTTTTTTTTTTT
~40 % DNA shifted: RECQL4 RQ4-2D | RECQL4 WT (RQ4Wt) | RECQL4 RQ4-2A
